B1: PW5-535 (antibody, V domains shown)
VH: EVRLVESGGGLVQPGGSLRLSCAASGFTFRNYDIHWVRQTTGKGLEWVSAVGTSGDTYYLDSVKGRFTISREDAKKSVYLQMNSLRAGDTAMYYCVRGDASPDNIYYYMDVWGTGTRVIVSS
VL: DIQVTQSPSPLSASVGDRVTITCRASQTIGKYLNWYHQIPGKAPKLLISAASTLHSGVPSRFSGRGSGTDFTLTISSLQPEDFGTYYCQQSYSSPPWTFGQGTKVEIK
B2: PW5-5 (antibody, V domains shown)
VH: QVQLVQSGAEVKKPGASVKVSCKTSGYTFTDHYMYWVRQAPGQGLEWMGVINPDAGSVTYAQKFQGRVTMTSDTSTSTVYMELSSLRSEDTAVYYCARDLFFIPAANSFDYWGQGTLVTVSS
VL: EIVLTQSPATLSLSPGERATLSCRASQSVSSYLAWYQQKPGQAPRLLIYDATNRATGIPARFSGSGSGTDFTLTISSLEPEDFAVYYCQHRSNWPRMFTFGQGTKLEIK
notes: also called PW5-5 IgG; IgG PW5-5

Molecular target: MERS-CoV S trimer (stabilized soluble S2P) (MERS-CoV, strain not named; stand-in …, UniProt K9N5Q8, stabilised)
Test: ELISA
Details: both partners purified

Row | Binder | binding result
1 | B1 | binds
2 | B2 | binds

Source: publication PMC10847457 (Cell Discovery, 2024)
